The target of one test is T1, human GPRC5D protein (human, UniProt Q9NZD1 1-345).
T1 construct: NCI-H929 cells express it endogenously in the functional assays; also called HuGPRC5D; huGPRC5D
As to the kind of experiment: flow cytometry, HEK293T-HuGPRC5D cells (sheet: 293T-huGPRC5D), PE anti-human IgG Fc secondary, MFI. The procedure: (§1) Whether the anti-GPRC5D chimeric antibodies in the present invention could bind to the human GPRC5D protein or cynomolgus monkey GPRC5D protein stably expressed on the cell surface was determined by cell binding experiments.
(§2) The HEK293T-HuGPRC5D cell line and HEK293T-CynoGPRC5D shown in Table 2 were subjected to enzymatic digestion to obtain single cell suspensions of the two types of cells. The single cell suspensions were centrifuged at room temperature at 400×g, and then the media were discarded. The resulting cell pellets were washed once with PBS and then resuspended in the serially diluted anti-GPRC5D chimeric antibodies shown in Table 5 and the control antibody GC5B596 (at an initial concentration of 133.3 nM, 4-fold gradient dilution, 8 concentrations in total), and the cells were incubated at 4° C. for 30 min. The cells were washed once with PBS, and then fluorescent secondary antibody R-PE-conjugated AffiniPure Goat Anti-Human IgG, Fcγ Fragment Specific (Jackson ImmunoResearch, Cat #109-116-098) diluted in a 1:200 ratio was added. The cells were incubated in the dark at 4° C. for 30 min. The cells were washed twice with PBS and then resuspended, and finally, two-channel fluorescence signals were detected using a BD Accuri C5 (BD Bioscience) flow cytometer.
For orientation: A flow cytometer gives signals particle by particle.

The target in test [1] is T2, cynomolgus monkey GPRC5D protein (cynomolgus monkey, UniProt Q9NZD1 1-343 (human entry)).
T2 construct: also called CynoGPRC5D; on HEK293T-CynoGPRC5D cells
T2 chain: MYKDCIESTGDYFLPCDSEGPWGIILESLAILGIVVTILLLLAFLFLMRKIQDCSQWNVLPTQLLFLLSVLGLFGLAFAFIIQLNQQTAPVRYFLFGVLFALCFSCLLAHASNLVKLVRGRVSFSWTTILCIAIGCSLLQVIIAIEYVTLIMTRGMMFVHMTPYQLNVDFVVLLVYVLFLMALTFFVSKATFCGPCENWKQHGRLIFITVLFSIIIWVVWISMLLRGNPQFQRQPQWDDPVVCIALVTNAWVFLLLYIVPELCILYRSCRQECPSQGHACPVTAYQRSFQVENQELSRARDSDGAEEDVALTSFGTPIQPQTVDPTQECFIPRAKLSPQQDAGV
The test is described as follows: flow cytometry, HEK293T-CynoGPRC5D cells (sheet: 293T-cynoGPRC5D), PE anti-human IgG Fc secondary, MFI. The procedure: as §1, §2

Test [2] addresses T3, human MUC16 protein (ECT_TM huMuc16) on 293T cells (human).
T3 chain: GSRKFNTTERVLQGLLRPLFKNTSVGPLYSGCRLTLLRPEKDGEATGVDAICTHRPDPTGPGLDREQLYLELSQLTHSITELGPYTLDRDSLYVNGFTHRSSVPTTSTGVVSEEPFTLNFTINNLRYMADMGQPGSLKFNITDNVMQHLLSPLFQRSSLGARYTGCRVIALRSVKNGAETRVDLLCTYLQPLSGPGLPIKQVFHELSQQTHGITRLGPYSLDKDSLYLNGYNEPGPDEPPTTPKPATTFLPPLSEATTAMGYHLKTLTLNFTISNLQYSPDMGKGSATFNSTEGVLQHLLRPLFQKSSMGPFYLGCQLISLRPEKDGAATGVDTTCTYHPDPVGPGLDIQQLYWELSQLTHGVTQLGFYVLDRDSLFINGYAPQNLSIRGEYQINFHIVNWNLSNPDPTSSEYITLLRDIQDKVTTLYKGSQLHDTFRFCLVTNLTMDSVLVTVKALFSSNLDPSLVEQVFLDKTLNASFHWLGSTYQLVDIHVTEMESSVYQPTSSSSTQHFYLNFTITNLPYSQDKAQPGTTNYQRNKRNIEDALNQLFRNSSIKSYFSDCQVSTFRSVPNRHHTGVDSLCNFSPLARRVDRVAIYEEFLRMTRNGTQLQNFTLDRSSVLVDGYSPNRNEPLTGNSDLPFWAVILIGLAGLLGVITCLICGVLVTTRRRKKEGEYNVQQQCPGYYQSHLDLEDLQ
The test is described as follows: flow cytometry, 293T/hMUC16 cells, PE anti-human IgG Fc secondary, MFI; EC50 table under the plot, unit from the axis Conc.(nM). How it is done: (§3) The serially diluted anti-human MUC16 antibodies (at an initial concentration of 200 nM, 4-fold dilution, 8 points in total) obtained in the present application were added to the cells, and the cells were incubated at 4° C. for 30 min. The cells were washed twice with PBS, and then fluorescent secondary antibody R-PE-conjugated AffiniPure Goat Anti-Human IgG, Fcγ Fragment Specific (Jackson ImmunoResearch, Cat #109-116-098) was added. The cells were incubated at 4° C. for 30 min. The cells were washed twice with PBS and then resuspended, and finally, fluorescence signals were detected using a BD Accuri C5 (BD Bioscience) flow cytometer.

Test [3] has as its target T4, rhesus monkey MUC16 protein (ECT_TM RhMuc16) on 293T cells (rhesus monkey).
T4 chain: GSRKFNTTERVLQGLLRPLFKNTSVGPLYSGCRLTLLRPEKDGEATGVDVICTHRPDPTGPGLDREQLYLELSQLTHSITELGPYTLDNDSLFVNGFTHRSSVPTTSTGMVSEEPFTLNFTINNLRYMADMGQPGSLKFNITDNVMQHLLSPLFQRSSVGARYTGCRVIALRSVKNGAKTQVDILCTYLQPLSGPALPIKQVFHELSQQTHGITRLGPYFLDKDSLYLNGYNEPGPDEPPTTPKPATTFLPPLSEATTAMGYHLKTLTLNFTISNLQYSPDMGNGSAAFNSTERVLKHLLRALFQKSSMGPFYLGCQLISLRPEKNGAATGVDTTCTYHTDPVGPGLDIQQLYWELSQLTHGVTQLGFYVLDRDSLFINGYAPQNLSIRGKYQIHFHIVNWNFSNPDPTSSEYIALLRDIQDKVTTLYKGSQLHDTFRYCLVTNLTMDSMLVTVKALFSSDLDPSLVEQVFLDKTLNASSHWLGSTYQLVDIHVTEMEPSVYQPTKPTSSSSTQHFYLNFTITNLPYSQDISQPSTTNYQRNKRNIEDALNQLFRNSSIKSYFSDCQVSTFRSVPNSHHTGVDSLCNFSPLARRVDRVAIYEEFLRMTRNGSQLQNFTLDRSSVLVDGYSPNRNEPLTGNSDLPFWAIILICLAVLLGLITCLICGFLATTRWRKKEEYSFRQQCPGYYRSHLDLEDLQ
As to the kind of experiment: flow cytometry, 293T/rhesus MUC16 cells, PE anti-human IgG Fc secondary, MFI; EC50 table under the plot, unit from the axis Conc.(nM). The procedure: as §3

For another test, the target named is T5, Human MUC16-His (human).
T5 construct: The entry includes the C-terminal 6xHis tag; also called membrane-proximal end of the extracellular region of the human MUC16 protein; Human MUC16 protein
T5 chain: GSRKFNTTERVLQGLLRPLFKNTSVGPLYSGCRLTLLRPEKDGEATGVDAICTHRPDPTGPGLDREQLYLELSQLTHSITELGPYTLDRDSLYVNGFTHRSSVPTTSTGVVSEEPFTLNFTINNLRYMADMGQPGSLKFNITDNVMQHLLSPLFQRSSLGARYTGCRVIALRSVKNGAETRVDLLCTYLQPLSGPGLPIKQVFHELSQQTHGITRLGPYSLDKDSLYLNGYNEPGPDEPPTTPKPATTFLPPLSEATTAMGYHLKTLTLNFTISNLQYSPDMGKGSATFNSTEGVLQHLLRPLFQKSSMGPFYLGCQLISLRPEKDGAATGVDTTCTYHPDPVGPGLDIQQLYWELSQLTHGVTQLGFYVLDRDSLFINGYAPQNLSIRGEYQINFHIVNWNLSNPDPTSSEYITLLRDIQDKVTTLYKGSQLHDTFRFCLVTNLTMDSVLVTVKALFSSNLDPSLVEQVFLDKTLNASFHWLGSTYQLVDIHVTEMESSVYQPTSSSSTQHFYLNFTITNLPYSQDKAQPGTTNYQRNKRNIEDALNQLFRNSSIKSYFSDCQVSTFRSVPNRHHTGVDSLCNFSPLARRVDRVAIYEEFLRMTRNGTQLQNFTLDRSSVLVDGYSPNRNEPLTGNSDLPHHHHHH
The test is described as follows: BLI (ForteBio Octet RED96), antibody on AHC sensor, 50 nM antigen, 1:1 model. An excerpt: (§4) The binding affinity of the anti-MUC-16 antibodies for the membrane-proximal end of the extracellular region of the human MUC16 protein (human MUC16-His, Table 26) and the membrane-proximal end of the extracellular region of the rhesus monkey MUC16 protein (rhesus monkey MUC16-His, Table 26) was detected by ForteBio Octet RED96, respectively. According to the manufacturer's instructions, an AHC sensor (ForteBio, Cat #18-5060) was placed in a running buffer (lx PBS, Hyclone, Cat #SH30256.01, containing 0.02% Tween 20, pH 7.0) and pre-equilibrated at room temperature for 10 min. In a 96-well plate, the kinetic assay was performed according to the following steps: a) equilibrating the baseline for 100 s with the running buffer; b) diluting the anti-MUC-16 antibodies with the running buffer to 5 μg/mL, immobilizing for 200 s, and stopping; c) equilibrating the baseline for 300 s with the running buffer; and d) diluting the human or rhesus monkey MUC16 protein with the running buffer to 50 nM, binding for 200 s, and dissociating for 600 s. The experimental data were fitted and calculated using a Fortebio Data Analysis software 1:1 binding model.

Another test concerns the target T6, Rhesus monkey MUC16-His (rhesus monkey).
T6 construct: The entry includes the C-terminal 6xHis tag; also called membrane-proximal end of the extracellular region of the rhesus monkey MUC16 protein
T6 chain: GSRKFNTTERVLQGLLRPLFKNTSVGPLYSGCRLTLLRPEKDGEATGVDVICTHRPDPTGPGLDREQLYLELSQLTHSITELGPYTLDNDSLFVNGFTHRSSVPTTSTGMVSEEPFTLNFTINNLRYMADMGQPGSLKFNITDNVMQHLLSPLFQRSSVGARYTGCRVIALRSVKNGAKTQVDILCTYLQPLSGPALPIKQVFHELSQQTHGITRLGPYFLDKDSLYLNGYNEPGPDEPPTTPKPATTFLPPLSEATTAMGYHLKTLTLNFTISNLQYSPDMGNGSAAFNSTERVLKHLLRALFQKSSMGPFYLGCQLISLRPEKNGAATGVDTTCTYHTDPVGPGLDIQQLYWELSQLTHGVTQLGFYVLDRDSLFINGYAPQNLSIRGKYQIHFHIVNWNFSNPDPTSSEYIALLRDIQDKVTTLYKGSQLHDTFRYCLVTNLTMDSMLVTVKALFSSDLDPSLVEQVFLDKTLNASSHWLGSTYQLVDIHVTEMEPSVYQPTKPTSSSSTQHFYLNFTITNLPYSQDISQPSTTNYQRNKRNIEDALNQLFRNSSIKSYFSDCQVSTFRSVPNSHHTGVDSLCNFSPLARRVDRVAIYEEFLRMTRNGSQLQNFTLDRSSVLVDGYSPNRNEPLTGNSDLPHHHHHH
Described as above.
From the text: as §4

The values below come from patent US20250092135A1 (NANJING LEADS BIOLABS, published 2025).

What is called EC50 (read off the curve) is the concentration giving half of the maximal effect. As usually defined, the EC50 is the concentration that produces a half-maximal response. In general, Kd refers to the equilibrium constant for the complex coming apart. One may read the koff as the rate constant with which the complex falls apart. One may read the kon as the rate constant with which the complex forms.

T1 sequence (Q9NZD1 whole entry): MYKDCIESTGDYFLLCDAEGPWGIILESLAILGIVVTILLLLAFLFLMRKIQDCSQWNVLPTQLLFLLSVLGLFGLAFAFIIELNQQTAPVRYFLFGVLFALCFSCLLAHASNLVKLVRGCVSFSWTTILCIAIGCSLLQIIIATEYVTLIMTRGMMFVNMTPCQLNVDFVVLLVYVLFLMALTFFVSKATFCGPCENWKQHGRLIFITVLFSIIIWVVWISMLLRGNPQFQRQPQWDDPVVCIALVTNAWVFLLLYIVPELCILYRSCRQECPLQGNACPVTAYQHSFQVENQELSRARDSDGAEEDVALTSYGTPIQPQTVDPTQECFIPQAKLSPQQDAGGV

B1: chimeric antibody 4B9E9 (antibody, human IgG1, kappa, V domains shown)
VH: DVQLVESGGGLVQPRGSRKLSCAASGFTFSSFGMHWVRQAPEKGLEWVAYISSDSNTIYYADTVQGRFTISRDNPKNTLFLQMTRLRSEDTAMYYCARNPWYFDVWGAGTTVTVSS
VL: DVLMTQTPLSLPVSLGDQVSISCRSSQSIVHSNGNTYLEWFLQKPGQSPKLLIYKVSNRFSGVPDRFSGSGSGTDFTLKISRVEAEDLGIYYCFQGSHIPPTFGGGTKLEIKR
notes: Murine variable regions on human IgG1 and kappa constant regions
In the case of B1, the 50% effective concentration (EC50 (read off the curve)) in the test with human GPRC5D protein was roughly 3 nM. Besides, the binding result in test [1] is “binds”.

B2: murine anti-MUC16 antibody 776.1 (antibody, human IgG1, kappa, L234A L235A, V domains shown)
VH: EVQLQQSGPELVKPGASVKISCKASGYTFTDYNIHWVKQSHGKILEWIGYIYPYNGVSDYNQNFKSKATLIVDNSSNTAYMELRSLTSEDSAVYYCARWDFGSGYYFDYWGQGTTLTVSS
VL: QIVLSQSPAILFASPGETVTMTCRASSSVIYMCWNQQKPGSSPKPWIYGTSTLASGVPTRFSGSGSGTSYSLTISRVEAEDAATYYCQQWSSNPFTFGSGTKLEIKR
notes: Murine variable regions on human IgG1 (L234A, L235A, D265A, P329A) and kappa constant regions
As for B2, the EC50 in test [2] was 2.58 nM; in test [3], 4.87 nM. Besides, the figures for the Kd with Human MUC16-His and with Rhesus monkey MUC16-His were 0.359 nM and 1.82 nM, respectively. Also, the koff with Human MUC16-His is 0.000168 s⁻¹; in the test with Rhesus monkey MUC16-His, 0.00156 s⁻¹. Moreover, the on-rate (kon) with Human MUC16-His was determined as 468000 M⁻¹ s⁻¹; with Rhesus monkey MUC16-His, 856000 M⁻¹ s⁻¹.

B3: anti-MUC16 antibody 776.1(C33A) (antibody, human IgG1, kappa, L234A L235A, V domains shown)
VH: EVQLQQSGPELVKPGASVKISCKASGYTFTDYNIHWVKQSHGKILEWIGYIYPYNGVSDYNQNFKSKATLIVDNSSNTAYMELRSLTSEDSAVYYCARWDFGSGYYFDYWGQGTTLTVSS
VL: QIVLSQSPAILFASPGETVTMTCRASSSVIYMAWNQQKPGSSPKPWIYGTSTLASGVPTRFSGSGSGTSYSLTISRVEAEDAATYYCQQWSSNPFTFGSGTKLEIKR
As to B3, the EC50 in test [2] was found to be 8.72 nM; in test [3], 11.1 nM. Moreover, the Kd with Human MUC16-His amounted to 1.36 nM; with Rhesus monkey MUC16-His it was 1.2 nM. Besides, the koff was determined as 0.000348 s⁻¹ with Human MUC16-His and 0.000945 s⁻¹ in the test with Rhesus monkey MUC16-His. Besides, the on-rate constant (kon) is 255000 M⁻¹ s⁻¹ with Human MUC16-His and 791000 M⁻¹ s⁻¹ with Rhesus monkey MUC16-His.
